Measurements reported in article PMC3553987.

Target: c-Myc;Max isoform (human;human, UniProt P01106;P61244 16-454;2-160, |)
Experiment: TIRF-PBM

Chain of c-Myc;Max isoform (P01106 16-454, chain 1 of 2): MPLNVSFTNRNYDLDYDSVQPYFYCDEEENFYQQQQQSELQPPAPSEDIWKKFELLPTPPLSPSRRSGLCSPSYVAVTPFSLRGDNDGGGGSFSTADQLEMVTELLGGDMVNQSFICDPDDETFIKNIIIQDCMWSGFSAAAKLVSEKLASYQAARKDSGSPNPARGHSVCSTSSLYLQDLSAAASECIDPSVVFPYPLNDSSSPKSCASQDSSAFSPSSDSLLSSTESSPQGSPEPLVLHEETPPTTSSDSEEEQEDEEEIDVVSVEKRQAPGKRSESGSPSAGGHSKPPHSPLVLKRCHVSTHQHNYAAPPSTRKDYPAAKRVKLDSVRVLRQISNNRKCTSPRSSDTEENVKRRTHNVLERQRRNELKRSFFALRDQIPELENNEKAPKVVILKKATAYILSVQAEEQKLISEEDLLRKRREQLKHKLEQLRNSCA
Chain of c-Myc;Max isoform (P61244 2-160, chain 2 of 2): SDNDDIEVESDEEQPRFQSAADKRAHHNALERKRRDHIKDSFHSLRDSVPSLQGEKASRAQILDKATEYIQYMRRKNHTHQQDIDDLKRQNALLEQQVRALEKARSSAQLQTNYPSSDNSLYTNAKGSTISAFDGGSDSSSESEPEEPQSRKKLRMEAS

B1: sequence 7 (12 A repeat) (dsDNA)
DNA 1: GCTACGAGCGCAAAAAAAAAAAAATGATAGCAAGCTCAAGTCAATCGGTCC
DNA 2: GGACCGATTGACTTGAGCTTGCTATCATTTTTTTTTTTTTGCGCTCGTAGC
modifications: 5' amino on one strand, coupled to hydrogel
- binding result: binds
